Laboratory results taken from patent publication US20240082327.

Tested on: Fct4 protein (Sendai virus F protein with truncated cytoplasmic domain), uncleaved

## trypsin-like enzyme TrypLE
  cleavage of Fct4 shown by Western blotting: incubation with a trypsin-like enzyme successfully cleaves Fct4
